# In US20220411483A1 (Chugai, published 2022):
# T1: FcγRIIb extracellular domain with C-terminal His tag (human, UniProt P31994 43-217)
# T1 construct: extracellular domain; also called FcgRIIb
# T1 sequence (looked up): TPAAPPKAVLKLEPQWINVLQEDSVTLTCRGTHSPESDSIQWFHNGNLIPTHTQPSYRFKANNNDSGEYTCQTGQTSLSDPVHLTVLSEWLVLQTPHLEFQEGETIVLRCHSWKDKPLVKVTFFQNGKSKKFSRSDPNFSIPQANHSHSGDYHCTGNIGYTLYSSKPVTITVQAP
# T2: mouse FcγRIV (mouse, UniProt A0A0B4J1G0 21-203)
# T2 construct: also called mFcγRIV
# T2 sequence: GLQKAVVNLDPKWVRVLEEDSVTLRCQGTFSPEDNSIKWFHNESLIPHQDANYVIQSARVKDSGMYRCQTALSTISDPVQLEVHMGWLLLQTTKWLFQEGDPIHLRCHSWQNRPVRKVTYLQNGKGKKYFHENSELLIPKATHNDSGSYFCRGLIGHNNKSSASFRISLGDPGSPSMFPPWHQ
# T3: mouse FcγRI (mouse, UniProt P26151 25-297, limits assumed)
# T3 construct: also called mFcγRI
# T3 sequence (looked up): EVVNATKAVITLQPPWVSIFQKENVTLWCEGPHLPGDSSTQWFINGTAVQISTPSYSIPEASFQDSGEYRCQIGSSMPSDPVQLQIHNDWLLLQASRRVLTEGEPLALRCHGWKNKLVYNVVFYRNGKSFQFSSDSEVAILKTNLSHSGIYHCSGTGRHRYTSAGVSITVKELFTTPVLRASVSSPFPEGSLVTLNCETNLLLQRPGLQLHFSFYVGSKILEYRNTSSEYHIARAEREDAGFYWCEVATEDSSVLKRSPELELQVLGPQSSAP
# B1: clone 278 (IgG1) (antibody, V domains shown)
# VH: QSLEESGGRLVTPGTPLTLTCTASGFSLSSYHMSWVRQAPGKGLEWIGVINSAGNTYYASWAKGRFTVSKTSTTVDLNLTSLTTEDTATYFCARYVFSSGSHDIWGPGTLVTVSS
# VL: AYDMTQTPASVEVAVGGTVTIKCQASQSIGSWLAWYQQKPGQPPKELIYGTSTLESGVPSRFIGSGSGTEFTLTISGVECADAATYYCQQGYSEDNIDNAFGGGTEVVVKR
# notes: pH-dependent anti-human IgE antibody with human IgG1 constant region
# B2: IL6R-BP198/IL6R-L (antibody, human IgG1, kappa, name in EU numbering)
# heavy: QVQLQESGPGLVKPSETLSLTCAVSGHSISHDHAWSWVRQPPGEGLEWIGFISYSGITNYNPSLQGRVTISRDNSKNTLYLQMNSLRAEDTAVYYCARSLARTTAMDYWGEGTLVTVSSASTKGPSVFPLAPSSKSTSGGTAALGCLVKDYFPEPVTVSWNSGALTSGVHTFPAVLQSSGLYSLSSVVTVPSSSLGTQTYICNVNHKPSNTKVDKKVEPKSCDKTHTCPPCPAPDYLGGDSVFLFPPKPKDTLMISRTPEVTCVVVDVSDEDGEVKFNWYVDGVEVHNAKTKPREEQYNSTYRVVSVLTVLHQDWLNGKEYKCKVSNAALPKPIEKTISKAKGQPREPQVYTLPPSRDELTKNQVSLTCLVKGFYPSDIAVEWESNGQPENNYKTTPPVLDSDGSFFLYSKLTVDKSRWQQGNVFSCSVMHEALHNHYTQESLSLSP
# light: not shown
# notes: IgG1; alterations on IL6R-B3, EU numbering
# B3: GA2-IgG1 (antibody, V domains shown)
# VH: QVQLVQSGAEVKKPGSSVKVSCKASGGTFSSYAISWVRQAPGQGLEWMGGIIPIFGTANYAQKFQGRVTITADESTSTAYMELSSLRSEDTAVYYCARPRWETAISSDAFDIWGQGTMVTVSS
# VL: DIQMTQSPSSLSASVGDRVTITCRASQSISDDLNWYQQKPGKAPKLLIYEASNLQSGVPSRFSGSGSGTDFTLTISSLQPEDFATYYCQQHSSSPLTFGQGTKVEIKR
# notes: also called GA-IgG1
# B4: VH3/L (WT)-mIgG1 (antibody)
# heavy: QVQLQESGPGLVKPSETLSLTCAVSGHSISHDHAWSWVRQPPGEGLEWIGFISYSGITNYNPSLQGRVTISRDNSKNTLYLQMNSLRAEDTAVYYCARSLARTTAMDYWGEGTLVTVSSAKTTPPSVYPLAPGSAAQTNSMVTLGCLVKGYFPEPVTVTWNSGSLSSGVHTFPAVLQSDLYTLSSSVTVPSSTWPSETVTCNVAHPASSTKVDKKIVPRDCGCKPCICTVPEVSSVFIFPPKPKDVLTITLTPKVTCVVVDISKDDPEVQFSWFVDDVEVHTAQTQPREEQFNSTFRSVSELPIMHQDWLNGKEFKCRVNSAAFPAPIEKTISKTKGRPKAPQVYTIPPPKEQMAKDKVSLTCMITDFFPEDITVEWQWNGQPAENYKNTQPIMDTDGSYFVYSKLNVQKSNWEAGNTFTCSVLHEGLHNHHTEKSLSHSPGK
# light: not shown
# notes: mouse IgG1 Fc region
# Key:
# human IgE [1] = target: T4, human IgE (human); test: SPR Biacore T200, 37 C, hIgE on chip, antibody analyte; pH 5.8, 1.2 mM Ca
# T4 construct: recombinant antigen; its variable region is from an anti-human glypican 3 antibody; also called hIgE
# Text: (§1) 1.2 mmol/1 CaCl₂/0.05% tween20, 20 mmol/l ACES, 150 mmol/l NaCl, pH 7.4 [0568] 1.2 mmol/1 CaCl₂/0.05% tween20, 20 mmol/l ACES, 150 mmol/l NaCl, pH 5.8 [0569] 3 μmol/l CaCl₂/0.05% tween20, 20 mmol/l ACES, 150 mmol/l NaCl, pH 5.8
# (§2) A peptide produced by adding biotin to Lys present at the C terminus of a chemically synthesized human glypican 3 protein-derived sequence (SEQ ID NO: 12) (hereinafter written as “biotinylated GPC3 peptide”) added at an appropriate amount was immobilized onto Sensor chip SA (GE Healthcare) utilizing the affinity between streptavidin and biotin. An appropriate concentration of human IgE was injected and trapped with the biotinylated GPC3 peptide to immobilize human IgE onto the chip. […] Then, 10 mmol/L glycine-HCl (pH 1.5) was injected to regenerate the sensor chip. All of the assay for the interaction was performed at 37° C. Using Biacore T200 Evaluation Software (GE Healthcare), the assay results were analyzed by curve fitting to determine the binding rate constant ka (1/Ms) and dissociation rate constant kd (1/s). Dissociation constant KD (M) was calculated from the above constants.
# human IgE [2] = target: T4, human IgE; test: SPR Biacore T200, 37 C; pH/Ca dependency
# Text: as §1, §2
# human IgE [3] = target: T4, human IgE; test: SPR Biacore T200, 37 C, hIgE on chip, antibody analyte; pH 7.4, 1.2 mM Ca
# Text: as §1, §2
# human IgE [4] = target: T4, human IgE; test: SPR Biacore T200, 37 C; pH dependency
# Text: as §1, §2
# human IgE [5] = target: T4, human IgE; test: SPR Biacore T200, 37 C, hIgE on chip, antibody analyte; pH 5.8, 3 µM Ca
# Text: as §1, §2
# [6] = target: T1, FcγRIIb extracellular domain with …; test: SPR (Biacore), FcgR as analyte
# [7] = target: T5, FcγRIa extracellular domain with C-terminal His tag (human, UniProt P12314 16-292); test: SPR (Biacore), FcgR as analyte
# T5 construct: also called FcgRIa
# [8] = target: T1, FcγRIIb extracellular domain with …; test: SPR (Biacore); KD of IL6R-B3/IL6R-L / KD of variant
# human IgA (hIgA) = target: T6, human IgA (hIgA) (human); test: SPR (Reference Example 3)
# T6 construct: recombinant antigen
# Procedure: The hIgA-binding activities (dissociation constant KD (M)) of the antibodies isolated in (1-3) were assessed using Biacore T200 (GE Healthcare). Measurements were performed using a 0.05% tween20, 20 mmol/L ACES, 150 mmol/L NaCl (pH 7.4 or pH 5.8) solution containing 3 μM or 1.2 mM CaCl₂, or a 0.05% tween20, 20 mmol/L ACES, 150 mmol/L NaCl (pH 8.0) solution containing 0.1 μM or 10 mM CaCl₂ as a running buffer.
# An appropriate amount of recombinant Protein A/G (Thermo Scientific) was immobilized onto a Sensor chip CMS (GE Healthcare) by an amino coupling method, and the antibody was allowed to bind thereto. Then, an appropriate concentration of hIgA (described in (1-1)) was injected as an analyte and allowed to interact with the antibody on the sensor chip. The measurement was carried out at 37° C. After measurement, 10 mmol/L glycine-HCl (pH 1.5) was injected to regenerate the sensor chip. From the measurement result, the dissociation constant KD (M) was calculated by curve fitting analysis and equilibrium analysis using Biacore T200 Evaluation Software (GE Healthcare).
# mouse FcγRIV = target: T2, mouse FcγRIV; test: SPR
# mouse FcγRI = target: T3, mouse FcγRI; test: SPR
# T4 sequence (heavy, as listed by the source, chain 1 of 2, other chains not shown): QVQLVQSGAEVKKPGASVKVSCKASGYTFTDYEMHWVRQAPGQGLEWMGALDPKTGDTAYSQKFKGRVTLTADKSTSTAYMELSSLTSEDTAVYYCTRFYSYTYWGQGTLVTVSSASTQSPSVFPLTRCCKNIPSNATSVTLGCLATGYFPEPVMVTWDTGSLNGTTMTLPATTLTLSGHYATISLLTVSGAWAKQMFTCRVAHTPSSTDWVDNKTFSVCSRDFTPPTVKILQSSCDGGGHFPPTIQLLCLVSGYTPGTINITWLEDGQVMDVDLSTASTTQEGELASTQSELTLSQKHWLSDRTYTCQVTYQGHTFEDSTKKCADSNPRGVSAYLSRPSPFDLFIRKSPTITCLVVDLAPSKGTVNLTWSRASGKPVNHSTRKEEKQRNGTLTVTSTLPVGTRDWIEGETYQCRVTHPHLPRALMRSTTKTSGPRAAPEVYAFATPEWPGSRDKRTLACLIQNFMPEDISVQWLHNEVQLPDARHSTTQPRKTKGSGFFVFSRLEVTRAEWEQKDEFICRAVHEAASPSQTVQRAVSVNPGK
# T6 sequence (VH, as listed by the source): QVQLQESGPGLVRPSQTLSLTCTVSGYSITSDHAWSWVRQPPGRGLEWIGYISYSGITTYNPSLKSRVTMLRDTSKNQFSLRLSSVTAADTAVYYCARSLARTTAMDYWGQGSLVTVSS
# T5 sequence (P12314 16-292): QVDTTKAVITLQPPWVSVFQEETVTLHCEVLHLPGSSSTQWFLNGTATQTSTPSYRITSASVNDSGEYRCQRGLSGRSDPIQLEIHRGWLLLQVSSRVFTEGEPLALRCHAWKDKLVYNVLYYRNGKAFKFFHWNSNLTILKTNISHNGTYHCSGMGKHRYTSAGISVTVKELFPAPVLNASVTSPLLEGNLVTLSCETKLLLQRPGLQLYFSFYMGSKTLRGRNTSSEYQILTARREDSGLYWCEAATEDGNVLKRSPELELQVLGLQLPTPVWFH
binder,measurement,setting,value
B1,Kd,human IgE [1],2000 nM
same,koff,human IgE [1],0.23 s⁻¹
same,kon,human IgE [1],120000 M⁻¹ s⁻¹
same,"KD(pH 5.8, 3 µM Ca)/KD(pH 7.4, 1.2 mM Ca)",human IgE [2],1640 ratio
same,Kd,human IgE [3],2.4 nM
same,koff,human IgE [3],0.0036 s⁻¹
same,kon,human IgE [3],1.5e+06 M⁻¹ s⁻¹
same,"KD(pH 5.8, 1.2 mM Ca)/KD(pH 7.4, 1.2 mM Ca)",human IgE [4],842 ratio
same,Kd,human IgE [5],3900 nM
same,koff,human IgE [5],0.24 s⁻¹
same,kon,human IgE [5],62000 M⁻¹ s⁻¹
B2,Kd,[6],200 nM
same,Kd,[7],11 nM
same,Relative FcgRIIb-binding Activity,[8],15.7 fold vs IL6R-B3/IL6R-L
B3,Ca-dependent hIgA-binding activity (fold),human IgA (hIgA),≥ 100 times
B4,binding result,mouse FcγRIV,no binding
same,binding result,mouse FcγRI,no binding
